B1: H1H2194P (antibody, human IgG1, V domains shown)
VH: QVQLVQSGAEVKKPGASVKVSCKASGYTFTSYDINWVRQATGQGLEWMGWINPNSDYTGYVQKFQGRVTMTRDTSISTAYMELSSLRSEDTAVYYCATSRWSEHFHHWGQGTLVTVSS
VL: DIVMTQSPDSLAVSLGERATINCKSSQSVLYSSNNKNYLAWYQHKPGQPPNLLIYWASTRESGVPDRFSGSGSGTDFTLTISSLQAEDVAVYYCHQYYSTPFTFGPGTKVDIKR
notes: Human IgG1 Fc; also called H1H2194N
B2: H1H1913N (antibody, human IgG1, V domains shown)
VH: QVQLQQWGAGLLKPSETLSLTCAVYGGSFSGDYWSWIRQSPGKGLEWIGEINHSGSTNYNPSLKSRVTISIDTSKNQFSLKLSSVTAADTAVYYCARGGGDYYYGMDVWGLGTTVTVSS
VL: AIQMTQSPSSLSASVGDRVTITCRASQGIGNDLGWYQQKPGKAPNLLIYATSSLQSGVPSRFSGSGSGTDFTLTISSLQPEDFATYYCLQDYNYPWTFGQGTKVEIK
notes: Human IgG1 Fc; also called H3M1913N (same variable domains)
B3: H1H2195P (antibody, human IgG1, V domains shown)
VH: QVQLVESGGGVVQPGRSRRLSCVGSGFIFSSYGMHWVRQAPGKGLEWVALIFYDGSNEYYVDSVKGRFTISRDNSKNTLYLQMNSLRAEDTAVYYCAREGYSQRYKYYFGMDVWGQGTTVTVSS
VL: DIQMTQSPSSVSASVGDRVTITCRASQGISSWLAWYQQQPGKAPKLLIYAASSLQSGVPSRFSGSGSGTDFTLTISSLQPEDFATYYCQQTNSFPLTFGGGTKVEIKR
notes: Human IgG1 Fc; also called H1H2195N
B4: H1H1915N (antibody, human IgG1, V domains shown)
VH: QVQLVESGGGVVQPGRSLRLSCAASGFTFSAYAMHWVRQAPGKGLEWVAVIWYDGSNKNYADSVKGRFTVSRDNSKNTLYLEMNSLRAEDTAVYYCARDLMVGVTNYWGQGTLVTVST
VL: DVVMTQSPLSLPVALGQPASISCRSSQSLVYTDGNTYLNWFHQRPGQSPRRLIYKVSNRDSGVPDRFTGSGSGTDFTLKISRVEAEDVGVFYCMQGSHWPPYTFGQGTKLEIK
notes: Human IgG1 Fc; also called H2M1915N (same variable domains)

Assays:
[1] = molecular target: T1, EGFRvIII-mmh (human, UniProt P00533 298-647, limits assumed); assay: ELISA
T1 construct: Soluble monomeric protein; also called hEGFRvIII-mmh; hEGFRvIII.mmh
Excerpt: (§1) To further characterize anti-hEGFRvIII mAbs, their binding specificity was examined by ELISA. […] Also, coated was an irrelevant peptide (control peptide) with or without biotin at its N-terminal. […] The plates were then washed and bound anti-EGFRvIII mAbs were detected with anti-human Fc antibodies conjugated with horse-radish peroxidase (HRP). […] Data analysis used a sigmoidal dose-response model within PRISM™ software.

[2] = molecular target: T2, EGFR-mmh (human, UniProt P00533 25-647, limits assumed); assay: ELISA
T2 construct: Soluble monomeric protein; also called hEGFR-mmh
Excerpt: as §1

[3] = molecular target: T1, EGFRvIII-mmh; assay: SPR 37C, mAb-capture
[4] = molecular target: T2, EGFR-mmh; assay: SPR 37C, mAb-capture
[5] = molecular target: T3, EGFRvIII-mFc (human); assay: SPR 37C, mAb-capture
T3 construct: Soluble dimeric protein

[6] = molecular target: T4, EGFR-mFc (human); assay: SPR 37C, mAb-capture
T4 construct: Soluble dimeric protein

[7] = molecular target: T3, EGFRvIII-mFc; assay: SPR 37C, receptor-capture
Experimental: (§2) Measurements were conducted on a T100 BIACORE™ instrument. […] In the receptor-capture format, either EGFRvIII-mFc or EGFR-mFc, was captured on the BIACORE™ chip and the respective antibodies flowed over. Kinetic association (kₐ) and dissociation (kd) rate constants were determined by processing and fitting the data to a 1:1 binding model using Scrubber 2.0 curve fitting software. Binding dissociation equilibrium constants (KD) and dissociative half-lives (t_{1/2}) were calculated from the kinetic rate constants as: KD (M)=kd/kₐ; and t₁₁₂ (min)=ln2/(60*kd).

[8] = molecular target: T4, EGFR-mFc; assay: SPR 37C, receptor-capture
Experimental: as §2

[9] = molecular target: T5, wild-type human EGFR on cells (human, UniProt P00533 25-1210); assay: FACS, A431 cells, PE secondary antibody
T5 construct: Stands for transfected HEK293/hEGFRwt, endogenous EGFR of A431 and of parental HEK293 cells, and human EGFR of hEGFR mice; the cell line is named under assay; also called EGFRwt; hEGFRwt
Experimental: (§3) To determine the specificity of the anti-EGFRvIII mAbs, their binding to HEK293, HEK293 cells expressing EGFRvIII (HEK293/EGFRvIII) and A431 cells, was analyzed by fluorescence activated cell sorting (FACS). HEK293/EGFRvIII cells were prepared by transfecting HEK293 cells with neomycin resistant DNA vectors constitutively expressing full-length hEGFRvIII (SEQ ID NO:147) using LIPOFECTAMINE™ 2000 transfection reagent (INVITROGEN™). At two days post-transfection, cells were placed under G418 selection for approximately two weeks. Populations positively expressing EGFRvIII were isolated via fluorescence activated cell sorting (FACS). The HEK293 cells expressing ˜3×10⁶ copies of EGFRvIII per cell were used in the experiment. […] In another set of experiment, anti-EGFRvIII antibodies were directly conjugated via their lysine residues with the fluorescent dye, ALEXA FLUOR® 488 Dye (INVITROGEN™), thereby eliminating the step using the secondary antibody. […] Controls I, II, III, IV and V are described above. MFI: Mean Fluorescence Intensity.

[10] = molecular target: T6, full-length hEGFRvIII on cells (human, UniProt P00533 298-1210); assay: FACS, HEK293/EGFRvIII cells, PE secondary antibody
T6 construct: Expressed from vectors in HEK293, U87, B16F10.9, U251 and MMT 060562 cells; also called HEK293/EGFRvIII; HEK293/hEGFRvIII
Experimental: as §3

[11] = molecular target: T2, EGFR-mmh; assay: ELISA; ELISA, 25 C, EGFR-mmh coated on the plate
Excerpt: as §1

[12] = molecular target: T6, full-length hEGFRvIII on cells; assay: FACS, HEK293/EGFRvIII cells, directly labeled antibody
Experimental: as §3

[13] = molecular target: T4, EGFR-mFc; assay: SPR 37C, receptor-capture; 37 C, receptor-capture format (EGFR-mFc captured)
Experimental: as §2

[14] = molecular target: T5, wild-type human EGFR on cells; assay: FACS, A431 cells, directly labeled antibody
Experimental: as §3

[15] = molecular target: T1, EGFRvIII-mmh; assay: ELISA; ELISA, 25 C, EGFRvIII-mmh coated on the plate
Excerpt: as §1

[16] = molecular target: T3, EGFRvIII-mFc; assay: SPR 37C, receptor-capture; 37 C, receptor-capture format (EGFRvIII-mFc captured)
Experimental: as §2

Row | Binder | EC50 [1] [pM] | EC50 [2] [pM] | Kd [3] [nM] | T½ [3] [min] | koff [3] [s⁻¹] | kon [3] [M⁻¹ s⁻¹] | Kd [4] [nM] | T½ [4] [min] | koff [4] [s⁻¹] | kon [4] [M⁻¹ s⁻¹] | Kd [5] [nM] | T½ [5] [min] | koff [5] [s⁻¹] | kon [5] [M⁻¹ s⁻¹] | Kd [6] [nM] | T½ [6] [min] | Kd [7] [nM] | T½ [7] [min] | koff [7] [s⁻¹] | kon [7] [M⁻¹ s⁻¹] | further results
1 | B1 | 3.2 | 3.7 | 17 | 8 | 0.00137 | 81000 | 12.6 | 12 | 0.00096 | 76000 | 2.33 | 52 | 0.000222 | 95400 | 2.43 | 58 | 0.394 | 157 | 7.38e-05 | 188000 | koff [6]: 0.000199 s⁻¹; kon [6]: 81000 M⁻¹ s⁻¹; Kd [8]: 0.38 nM; T½ [8]: 163 min; koff [8]: 7.07e-05 s⁻¹; kon [8]: 187000 M⁻¹ s⁻¹; A431 MFI [9]: 2290 MFI; Fold Above Background [9]: 1.6 fold; HEK293/EGFRvIII MFI [10]: 18600 MFI; Ratio (EGFRvIII MFI/parental MFI) [10]: 18.9
2 | B2 | 2140 |  | 7030 | 10 | 0.00114 | 163 |  |  |  |  | 22.6 | 37 | 0.000316 | 14000 |  |  | ≤ 0.0159 | 11600 | ≤ 1e-06 | 63000 | EC50 [11]: 2.55 nM; HEK293/EGFRvIII MFI [12]: 239000 MFI; Ratio (EGFRvIII MFI/parental MFI) [12]: 49.8; Kd [13]: ≤ 0.169 nM; koff [13]: ≤ 1e-06 s⁻¹; kon [13]: 5930 M⁻¹ s⁻¹
3 | B3 | 4.9 | 5.2 | 10.7 | 17 | 0.000694 | 64800 | 9.2 | 22 | 0.000523 | 56600 | 1.1 | 103 | 0.000113 | 102000 | 2.05 | 61 | 0.106 | 456 | 2.53e-05 | 237000 | koff [6]: 0.000189 s⁻¹; kon [6]: 92000 M⁻¹ s⁻¹; Kd [8]: 0.231 nM; T½ [8]: 222 min; koff [8]: 5.2e-05 s⁻¹; kon [8]: 225000 M⁻¹ s⁻¹; A431 MFI [9]: 2230 MFI; Fold Above Background [9]: 1.6 fold; HEK293/EGFRvIII MFI [10]: 13500 MFI; Ratio (EGFRvIII MFI/parental MFI) [10]: 11.5
4 | B4 |  |  |  |  |  |  |  |  |  |  |  |  |  |  |  |  |  |  |  |  | A431 MFI [14]: 8440 MFI; Fold Above Background [14]: 1.2 fold; EC50 [15]: 0.167 nM; HEK293/EGFRvIII MFI [12]: 73400 MFI; Ratio (EGFRvIII MFI/parental MFI) [12]: 21.2; Kd [13]: 184 nM; T½ [13]: 1.4 min; koff [13]: 0.00801 s⁻¹; kon [13]: 43500 M⁻¹ s⁻¹; Kd [16]: 3.2 nM; T½ [16]: 35 min; koff [16]: 0.000328 s⁻¹; kon [16]: 100000 M⁻¹ s⁻¹

From patent publication US20160304615A1 (Regeneron, published 2016)
